# In paper PMC5748983:
# B1: HA-RAB-10(T23N) (natural protein)
# chain: MARRPYDMLFKLLLIGDSGVGKNCILYRFSDDAFNTTFISTIGIDFKIKTIELKGKKIKLQIWDTAGQERFHTITTSYYRGAMGIMLVYDITNAKSFDNIAKWLRNIDEHASEDVVKMILGNKCDMSDRRVVSRERGEKIAQDHGISFHETSAKLNVHVDTAFYDLAEAILAKMPDSTDEQSRDTVNPVQPQRQSSSGGCC
# Biological target: GST-DENN-4 (C. elegans)
# Assay: pull-down
binder,measurement,value
B1,"fold increase of pull-down with HA-LET-413 added, against without",3 fold
